US20210301021A1 (NANJING GENSCRIPT BIOTECH, published 2021)

Assays:
CTLA4/His [1] = target: T1, CTLA4/His (human, UniProt P16410 36-161); assay: SPR (Biacore), after AAPH oxidation, analyte CTLA4/His
T1 construct: not shown: His tag
T1 sequence (looked up): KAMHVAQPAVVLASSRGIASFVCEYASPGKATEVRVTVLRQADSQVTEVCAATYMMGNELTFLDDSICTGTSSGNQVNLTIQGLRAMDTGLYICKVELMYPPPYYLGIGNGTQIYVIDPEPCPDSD

CTLA4/His [2] = target: T1, CTLA4/His; assay: SPR, Biacore 8K, antibody captured on the chip, antigen as analyte, 1:1 binding model
[3] = target: T2, CTLA-4 on the functional cells of the Promega anti-CTLA-4 blocking assay kit (UniProt P16410 36-223, limits assumed); assay: cell-based or functional assay
T2 sequence (looked up): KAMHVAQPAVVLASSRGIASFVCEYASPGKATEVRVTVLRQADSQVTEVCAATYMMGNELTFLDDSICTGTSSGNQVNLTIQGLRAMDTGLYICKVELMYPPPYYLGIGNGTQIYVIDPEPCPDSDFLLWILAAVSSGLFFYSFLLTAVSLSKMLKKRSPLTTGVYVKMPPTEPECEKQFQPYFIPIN

CTLA4/His [4] = target: T1, CTLA4/His; assay: SPR (Biacore), untreated control of the oxidation pressure test, analyte CTLA4/His
[5] = target: T3, human CTLA4-Fc recombinant protein (human, UniProt P16410 36-161); assay: kinetics of the prokaryotic expression product, analyte CTLA4/Fc, 1:1 binding model
T3 construct: not shown: Fc part
T3 sequence (looked up): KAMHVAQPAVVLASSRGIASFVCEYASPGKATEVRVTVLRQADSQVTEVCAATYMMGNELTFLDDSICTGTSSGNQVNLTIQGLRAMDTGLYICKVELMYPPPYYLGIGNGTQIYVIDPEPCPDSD

[6] = target: T3, human CTLA4-Fc recombinant protein; assay: kinetics of the prokaryotic expression product, analyte CTLA4/Fc, 1:1 binding model; prokaryotic expression product, analyte CTLA4/Fc (Table 2)

Binder	Kd (CTLA4/His [2])	koff (CTLA4/His [2])	kon (CTLA4/His [2])	Kd [5]	other results
Chimeric antibody AAPH (chimeric antibody after the oxidation pressure test) (antibody, V domains shown, Met 63 oxidised in 62.144% of the sample (AAPH, 40 C, 24 h), Same protein as the chimeric antibody, treated with AAPH; also called Chimeric antibody AAPH-24 h) VH: QVHLQQSGDVLVKPGASVNLSCKASGYTFTSYWINWIKQRPGQGLEWIGRIAPGSGTTYYNEMFTGKATLTVVTSSTTAYIQLSSLSFEDSAVYFCARGDYFDYWDQGTTLTVSS VL: QIVLTQSPAIMSASPGGKVTITCSASKSVSYIHWFQQKPGTSPKLLIYDTSTLASGVPPRFSGSGSGPSYSLTISRMEAEDAATYYCQQRTTYPLTFGGGTKLEVR					Kd (CTLA4/His [1]): 48.7 pM; koff (CTLA4/His [1]): 2.78e-05 s⁻¹; kon (CTLA4/His [1]): 570000 M⁻¹ s⁻¹
AH01674 humanized anti-human CTLA4 monoclonal antibody (human IgG1/kappa) (antibody, V domains shown, also called AH1674) VH: QVQLVQSGAEVKKPGASVKVSCKASGYTFTSYWINWVRQAPGQGLEWMGRIAPGSGTTYYNEMFTGRVTMTRDTSTSTAYMELSSLRSEDTAVYYCARGDYFDYWGQGTMVTVSS VL: DIQLTQSPSFLSASVGDRVTITCSASKSVSYIHWYQQKPGKAPKLLIYDTSTLASGVPPRFSGSGSGPEFTLTISSLQPEDFATYYCQQRTTYPLTFGQGTKLEIK	≤ 14.2 pM	≤ 1e-05 s⁻¹	705000 M⁻¹ s⁻¹		EC50 (µg/ml), luciferase reporter, Promega anti-CTLA-4 blocking assay (CD80/CD86 aAPC/Raji cells with functional cells expressing CTLA-4) [3]: 1.11 µg/mL; Kd (CTLA4/His [4]): 39.5 pM; koff (CTLA4/His [4]): 2.98e-05 s⁻¹; kon (CTLA4/His [4]): 753000 M⁻¹ s⁻¹
AH01674 AAPH (AH01674 after the oxidation pressure test) (antibody, V domains shown, Met 63 oxidised in 75.616% of the sample (AAPH, 40 C, 24 h), Human IgG1/kappa, treated with AAPH; also called AH01674 AAPH-24 h) VH: QVQLVQSGAEVKKPGASVKVSCKASGYTFTSYWINWVRQAPGQGLEWMGRIAPGSGTTYYNEMFTGRVTMTRDTSTSTAYMELSSLRSEDTAVYYCARGDYFDYWGQGTMVTVSS VL: DIQLTQSPSFLSASVGDRVTITCSASKSVSYIHWYQQKPGKAPKLLIYDTSTLASGVPPRFSGSGSGPEFTLTISSLQPEDFATYYCQQRTTYPLTFGQGTKLEIK					Kd (CTLA4/His [1]): 30.5 pM; koff (CTLA4/His [1]): 2.19e-05 s⁻¹; kon (CTLA4/His [1]): 719000 M⁻¹ s⁻¹
AH01674 (prokaryotic expression antibody product, CBM library) (Fab, V domains shown, Prokaryotic expression product from Phage-Fab / FASEBA-Fab plasmids) VH: QVQLVQSGAEVKKPGASVKVSCKASGYTFTSYWINWVRQAPGQGLEWMGRIAPGSGTTYYNEMFTGRVTMTRDTSTSTAYMELSSLRSEDTAVYYCARGDYFDYWGQGTMVTVSS VL: DIQLTQSPSFLSASVGDRVTITCSASKSVSYIHWYQQKPGKAPKLLIYDTSTLASGVPPRFSGSGSGPEFTLTISSLQPEDFATYYCQQRTTYPLTFGQGTKLEIK				15.4 pM	
AH01696 humanized anti-human CTLA4 monoclonal antibody (human IgG1/kappa) (antibody, V domains shown) VH: VQLVQSGAEVVKPGASVKVSCKASGYTFTSYWINWIRQAPGQGLEWIGRIAPGSGTTYYNEMFTGRVTLTRDTSTSTAYMELSSLRSEDTAVYYCARGDYFDYWDQGTMVTVSS VL: DIQLTQSPSFLSASVGDRVTITCSASKSVSYIHWFQQKPGKAPKLLIYDTSTLASGVPSRFSGSGSGTEYTLTISSLQPEDFATYYCQQRTTYPLTFGQGTKLEIK	42.9 pM	2.77e-05 s⁻¹	646000 M⁻¹ s⁻¹		
AH01696 (prokaryotic expression antibody product, 5BM library) (Fab, V domains shown, Prokaryotic expression product from Phage-Fab / FASEBA-Fab plasmids) VH: VQLVQSGAEVVKPGASVKVSCKASGYTFTSYWINWIRQAPGQGLEWIGRIAPGSGTTYYNEMFTGRVTLTRDTSTSTAYMELSSLRSEDTAVYYCARGDYFDYWDQGTMVTVSS VL: DIQLTQSPSFLSASVGDRVTITCSASKSVSYIHWFQQKPGKAPKLLIYDTSTLASGVPSRFSGSGSGTEYTLTISSLQPEDFATYYCQQRTTYPLTFGQGTKLEIK				0.00373 pM	
AH01695 (prokaryotic expression antibody product, 5BM library) (Fab, V domains shown, Prokaryotic expression product from Phage-Fab / FASEBA-Fab plasmids) VH: QVQLVQSGAEVKKPGASVKVSCKASGYTFTSYWINWVRQAPGQGLEWMGRIAPGSGTTYYNEMFTGRVTLTRDTSTSTAYIELSSLRSEDTAVYFCAIGDYFDYWGQGTMVTVSS VL: DIQLTQSPSFLSASVGDRVTITCSASKSVSYIHWYQQKPGKAPKLLIYDTSTLASGVPSRFSGSGSGTEFTLTISSLQPEDFATYYCQQRTTYPLTFGQGTKLEIK				0.0106 pM	
AH01695 AAPH (AH01695 after the oxidation pressure test) (antibody, V domains shown, Met 63 oxidised in 70.898% of the sample; Met 250 (constant region of the heavy chain) oxidised in 26.143% (AAPH, 40 C, 24 h), Human IgG1/kappa, treated with AAPH; also called AH01695 AAPH-24 h) VH: QVQLVQSGAEVKKPGASVKVSCKASGYTFTSYWINWVRQAPGQGLEWMGRIAPGSGTTYYNEMFTGRVTLTRDTSTSTAYIELSSLRSEDTAVYFCAIGDYFDYWGQGTMVTVSS VL: DIQLTQSPSFLSASVGDRVTITCSASKSVSYIHWYQQKPGKAPKLLIYDTSTLASGVPSRFSGSGSGTEFTLTISSLQPEDFATYYCQQRTTYPLTFGQGTKLEIK					Kd (CTLA4/His [1]): 131 pM; koff (CTLA4/His [1]): 8.75e-05 s⁻¹; kon (CTLA4/His [1]): 670000 M⁻¹ s⁻¹
AH01686 humanized anti-human CTLA4 monoclonal antibody (human IgG1/kappa) (antibody, V domains shown) VH: QVQLVQSGAEVVKPGASVKVSCKASGYTFTSYWINWIKQAPGQGLEWIGRIAPGSGTTYYNEMFTGRVTLTRDTSTSTAYIELSSLRSEDTAVYFCARGDYFDYWGQGTMVTVSS VL: DIQLTQSPSFLSASVGDRVTITCSASKSVSYIHWYQQKPGKAPKLLIYDTSTLASGVPSRFSGSGSGTEFTLTISSLQPEDFATYYCQQRTTYPLTFGQGTKLEIK	38.8 pM	3.18e-05 s⁻¹	820000 M⁻¹ s⁻¹		
AH01653 (prokaryotic expression antibody product, CBM library) (Fab, V domains shown) VH: QVHLVQSGAEVKKPGASVKVSCKASGYTFTSYWINWVKQAPGQGLEWMGRIAPGSGTTYYNEMFTGRVTMTRDTSTSTAYMELSSLRSEDTAVYYCARGDYFDYWDQGTMVTVSS VL: DIQLTQSPSFLSASVGDRVTITCSASKSVSYIHWYQQKPGKAPKLLIYDTSTLASGVPSRFSGSGSGPEYTLTISSLQPEDFATYYCQQRTTYPLTFGGGTKLEIK				14.9 pM	
AH01704 humanized anti-human CTLA4 monoclonal antibody (human IgG1/kappa) (antibody, V domains shown) VH: QVQLVQSGAEVVKPGASVKVSCKASGYTFTSYWINWVKQAPGQGLEWMGRIAPGSGTTYYNEMFTGRVTLTRDTSTSTAYMELSSLRSEDTAVYFCARGDYFDYWGQGTMVTVSS VL: DIQLTQSPSFLSASVGDRVTITCSASKSVSYIHWYQQKPGKAPKLLIYDTSTLASGVPSRFSGSGSGTEYTLTISSLQPEDFATYYCQQRTTYPLTFGQGTKLEIK	14.4 pM	1.12e-05 s⁻¹	780000 M⁻¹ s⁻¹		
AH01704 (prokaryotic expression antibody product, 5BM library) (Fab, V domains shown, Prokaryotic expression product from Phage-Fab / FASEBA-Fab plasmids) VH: QVQLVQSGAEVVKPGASVKVSCKASGYTFTSYWINWVKQAPGQGLEWMGRIAPGSGTTYYNEMFTGRVTLTRDTSTSTAYMELSSLRSEDTAVYFCARGDYFDYWGQGTMVTVSS VL: DIQLTQSPSFLSASVGDRVTITCSASKSVSYIHWYQQKPGKAPKLLIYDTSTLASGVPSRFSGSGSGTEYTLTISSLQPEDFATYYCQQRTTYPLTFGQGTKLEIK				0.019 pM	
AH01679 humanized anti-human CTLA4 monoclonal antibody (human IgG1/kappa) (antibody, V domains shown, also called AH1679) VH: QVQLVQSGAEVVKPGASVKLSCKASGYTFTSYWINWVRQAPGQGLEWIGRIAPGSGTTYYNEMFTGRVTMTRDTSTSTVYMELSSLRSEDTAVYYCARGDYFDYWGQGTMVTVSS VL: DIQLTQSPSFLSASVGDRVTITCSASKSVSYIHWYQQKPGKAPKLLIYDTSTLASGVPSRFSGSGSGTEFTLTISSLQPEDFATYYCQQRTTYPLTFGQGTKLEIK	≤ 13.4 pM	≤ 1e-05 s⁻¹	748000 M⁻¹ s⁻¹		EC50 (µg/ml), luciferase reporter, Promega anti-CTLA-4 blocking assay (CD80/CD86 aAPC/Raji cells with functional cells expressing CTLA-4) [3]: 17.1 µg/mL
AH01695 humanized anti-human CTLA4 monoclonal antibody (human IgG1/kappa) (antibody, V domains shown, also called AH1695) VH: QVQLVQSGAEVKKPGASVKVSCKASGYTFTSYWINWVRQAPGQGLEWMGRIAPGSGTTYYNEMFTGRVTLTRDTSTSTAYIELSSLRSEDTAVYFCAIGDYFDYWGQGTMVTVSS VL: DIQLTQSPSFLSASVGDRVTITCSASKSVSYIHWYQQKPGKAPKLLIYDTSTLASGVPSRFSGSGSGTEFTLTISSLQPEDFATYYCQQRTTYPLTFGQGTKLEIK	≤ 15.3 pM	≤ 1e-05 s⁻¹	655000 M⁻¹ s⁻¹		EC50 (µg/ml), luciferase reporter, Promega anti-CTLA-4 blocking assay (CD80/CD86 aAPC/Raji cells with functional cells expressing CTLA-4) [3]: 5.46 µg/mL; Kd (CTLA4/His [4]): 59.4 pM; koff (CTLA4/His [4]): 4.55e-05 s⁻¹; kon (CTLA4/His [4]): 767000 M⁻¹ s⁻¹
AH01672 (prokaryotic expression antibody product, CBM library) (Fab, V domains shown, Prokaryotic expression product from Phage-Fab / FASEBA-Fab plasmids) VH: QVQLVQSGAEVKKPGASVKVSCKASGYTFTSYWINWVKQAPGQGLEWMGRIAPGSGTTYYNEMFTGRVTMTRDTSTSTAYMELSSLRSEDTAVYYCARGDYFDYWDQGTMVTVSS VL: DIQLTQSPSFLSASVGDRVTITCSASKSVSYIHWYQQKPGKAPKLLIYDTSTLASGVPPRFSGSGSGPEFSLTISSLQPEDFATYYCQQRTTYPLTFGGGTKLEIK				14.5 pM	
AH01679 (prokaryotic expression antibody product, 5BM library) (Fab, V domains shown, Prokaryotic expression product from Phage-Fab / FASEBA-Fab plasmids) VH: QVQLVQSGAEVVKPGASVKLSCKASGYTFTSYWINWVRQAPGQGLEWIGRIAPGSGTTYYNEMFTGRVTMTRDTSTSTVYMELSSLRSEDTAVYYCARGDYFDYWGQGTMVTVSS VL: DIQLTQSPSFLSASVGDRVTITCSASKSVSYIHWYQQKPGKAPKLLIYDTSTLASGVPSRFSGSGSGTEFTLTISSLQPEDFATYYCQQRTTYPLTFGQGTKLEIK				0.0431 pM	koff [6]: < 1e-05 s⁻¹
AH01686 (prokaryotic expression antibody product, 5BM library) (Fab, V domains shown, Prokaryotic expression product from Phage-Fab / FASEBA-Fab plasmids) VH: QVQLVQSGAEVVKPGASVKVSCKASGYTFTSYWINWIKQAPGQGLEWIGRIAPGSGTTYYNEMFTGRVTLTRDTSTSTAYIELSSLRSEDTAVYFCARGDYFDYWGQGTMVTVSS VL: DIQLTQSPSFLSASVGDRVTITCSASKSVSYIHWYQQKPGKAPKLLIYDTSTLASGVPSRFSGSGSGTEFTLTISSLQPEDFATYYCQQRTTYPLTFGQGTKLEIK				0.0433 pM	
